IntAct's records for PubMed 16319069

B1: 5-hydroxytryptamine receptor 2C (Homo sapiens), P28335 (parent)
chain: MVNLRNAVHSFLVHLIGLLVWQSDISVSPVAAIVTDIFNTSDGGRFKFPDGVQNWPALSIVIIIIMTIGGNILVIMAVSMEKKLHNATNYFLMSLAIADMLVGLLVMPLSLLAILYDYVWPLPRYLCPVWISLDVLFSTASIMHLCAISLDRYVAIRNPIEHSRFNSRTKAIMKIAIVWAISIGVSVPIPVIGLRDEEKVFVNNTTCVLNDPNFVLIGSFVAFFIPLTIMVITYCLTIYVLRRQALMLLHGHTEEPPGLSLDFLKCCKRNTAEEENSANPNQDQNARRRKKKERRPRGTMQAINNERKASKVLGIVFFVFLIMWCPFFITNILSVLCEKSCNQKLMEKLLNVFVWIGYVCSGINPLVYTLFNKIYRRAFSNYLRCNYKVEKKPPVRQIPRVAATALSGRELNVNIYRHTNEPVIEKASDNEPGIEMQVENLELPVNPSSVVSERISSV

Variants of: B1
Settings: with arrb2_mouse Arrb2, Q91YI4
Sequence of arrb2_mouse Arrb2, Q91YI4 (Q91YI4 whole entry): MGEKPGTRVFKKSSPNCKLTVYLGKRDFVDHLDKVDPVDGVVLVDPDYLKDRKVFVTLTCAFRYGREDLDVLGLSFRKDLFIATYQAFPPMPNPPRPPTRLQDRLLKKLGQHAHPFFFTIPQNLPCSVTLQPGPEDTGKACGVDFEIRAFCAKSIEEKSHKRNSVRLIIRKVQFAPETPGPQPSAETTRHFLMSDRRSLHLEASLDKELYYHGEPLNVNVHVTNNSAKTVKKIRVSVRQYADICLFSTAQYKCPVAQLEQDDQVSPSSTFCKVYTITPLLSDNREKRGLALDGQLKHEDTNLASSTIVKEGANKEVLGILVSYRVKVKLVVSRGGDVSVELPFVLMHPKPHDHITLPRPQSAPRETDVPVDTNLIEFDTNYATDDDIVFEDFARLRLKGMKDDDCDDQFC

| effect of a mutation on the interaction | Variant |
| --- | --- |
| decreasing interaction | P159A |
